Data set [1] concerns T1, MBP-SINAT5.
T1 sequence: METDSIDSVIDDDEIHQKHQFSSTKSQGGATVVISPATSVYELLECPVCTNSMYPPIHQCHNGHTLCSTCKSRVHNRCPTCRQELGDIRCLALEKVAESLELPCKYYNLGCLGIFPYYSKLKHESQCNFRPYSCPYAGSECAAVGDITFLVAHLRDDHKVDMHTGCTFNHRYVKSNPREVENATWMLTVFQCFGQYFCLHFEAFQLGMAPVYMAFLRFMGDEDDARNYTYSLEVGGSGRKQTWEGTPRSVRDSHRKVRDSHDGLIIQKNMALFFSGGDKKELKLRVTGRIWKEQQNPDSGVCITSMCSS

Data set [2] deals with T2, Myc-NAC1, Q84TE6.
T2 chain: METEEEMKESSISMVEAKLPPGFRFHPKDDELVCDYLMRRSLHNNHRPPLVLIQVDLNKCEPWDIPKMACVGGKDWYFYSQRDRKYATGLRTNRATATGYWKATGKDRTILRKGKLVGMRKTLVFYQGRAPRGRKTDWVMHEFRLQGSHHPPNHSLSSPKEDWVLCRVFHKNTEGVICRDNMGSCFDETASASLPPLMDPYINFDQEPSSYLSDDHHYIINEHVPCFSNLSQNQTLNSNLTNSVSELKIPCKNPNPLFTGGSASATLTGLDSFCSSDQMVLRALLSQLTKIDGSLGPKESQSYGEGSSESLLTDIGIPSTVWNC

Data set [3] addresses T3, Myc-NAC1 (Arabidopsis, UniProt Q84TE6 1-324).
T3 construct: Product of the 35S-6xMyc-NAC1 transgene in Arabidopsis thaliana; immunoprecipitated with anti-Myc antibody; also called 6xMyc-NAC1; Myc-tagged NAC1; not shown: 6xMyc tag
T3 sequence (looked up): T2 chain
The experiment in a line: immunoprecipitation with anti-Myc from roots of double transgenic plants, Western blot with anti-SINAT5. How it is done: Western and Northern blot analyses. Antibody to SINAT5 was raised in rabbits using as an antigen the synthetic […] peptide […] (SEQ ID NO:5) corresponding to amino acid residues 3 to 18 of SINAT5 polypeptide (SEQ ID NO:1). Antibodies to c-Myc (SC40 and SC40-AC) and actin (SC1616) from Santa Cruz Biotechnology were used for immunoprecipitation and/or Western blotting. Each lane contained 10 or 20 μg protein. RNA extraction was performed by RNeasyR Plant Mini kit (Qiagene). Northern blot analysis was described previously²⁰, using as probes a NAC1 cDNA fragment encoding the NAC1 C-terminal region (amino acid 200 to 324) and a SINAT5-specific EcoRI-NdeI fragment. The 18S rRNA was used as a loading control. Each lane contained 10 μg RNA.
SINAT5 affect on expression of NAC1 in roots. Referring now to FIG. 4, there is shown the relationship between SINAT5 and NAC1 expression levels in transgenic plants. […] Root cultures from a myc-NAC1 transgenic line were treated with 50 μM of proteasome inhibitor MG 132 (+) or DMSO (−) for 3 hr. Protein extracts were processed for Western blot analysis. […] Myc-tagged proteins from roots of double transgenic plants were immunoprecipitated with antibodies specific for Myc and processed for Western blot analysis with antibodies specific for SINAT5. […] Total RNAs from the same transgenic lines were analyzed by Northern blot. […]
In general terms: In western blotting, separated proteins are transferred to a membrane and probed.

On to MBP-SINAT5 (C49S) mutant, for which the “self-ubiquitylation activity (E3 activity) of WT SINAT5, in vitro ubiquitylation assay” value in data set [1] was “the C49S mutant protein was able to inhibit the self-ubiquitylation activity of the WT SINAT5 when present at a 5-10 fold excess”.

B1: SINAT5 (wildtype) (enzyme)
chain: T1 sequence
notes: GenBank AF480944 is printed for the gene; also called WT SINAT5; SINA of Arabidopsis thaliana 5
Turning to B1, the “in vitro ubiquitylation of myc-NAC1 immunopurified from transgenic plants (Western blot)” value in data set [2] was “myc-NAC1 can be ubiquitylated by SINAT5 and this reaction is clearly dependent on E1, E2, and SINAT5 as an E3 ligase”. For the same molecule, the binding result in data set [3] is listed as “binds”.
